Test system: Saccharomyces cerevisiae
Assay: transcriptional activation domain activity (GFP:mCherry ratio, weighted mean of sorted bins, harmonized to initial dataset scale) (arbitrary fluorescence ratio units); higher = stronger transcriptional activation
Conditions: beta-estradiol 1 µM; induction time 4 h
Procedure, shortened: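 After a 1:5 dilution into SC with 1 uM beta-estradiol and 4 hours at 30 °C, yeast diploids carrying a GFP reporter and URA3-integrated barcoded tiles were sorted into 8 bins by GFP:mCherry ratio. The tiles were fused to an estradiol-inducible synthetic transcription factor. Barcodes were sequenced, tiles below 50 reads were discarded, and activation activity was taken as the read-weighted mean of bin median fluorescence, averaged across barcodes and linearly mapped onto the initial dataset scale.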

Row | Sequence | transcriptional activation domain activity
1 | FLSGWPLVLGKFGFDPKFNSCWYLNQDDRLTLIWLWCTFYFWVVASVIYSLLV | 62300
2 | CLVIRGRSRFQHGPFWLGSFGLLCNIVLLSWTLFSLVFFSFPFVKPIIPGKPF | 76900
3 | EADGEVKTKSKKSKKQKGDAADSAEADDAKSAVPEGTDATKKKKKRKTQEPSD | 30600
4 | VNDAARILLAGLLEIKYTIREHLKSMFGSPWIIMYWRNWSGPLNITLELLGKC | 45200
5 | DLLDQMILGLLRYCEADILVPKLRLLGATDRARMELLDAYSCKVWLLLLMFVT | 56500
6 | MPYKKGHFVWILVYAIAVQSGNVMKKRVGVVTLVLKMPSRKILPPWSTLVCKT | 47300
7 | FLHLLKIIRPSFAFYFTILFWWCIQVQLLLQIIINRIRVIVPNRKLSRHIMWG | 66300
8 | VYYFWVRIFVFSFRSTCFCIFLFYYLYLFFLFIFLYLTSSFSSFHHLSLLLVV | 57800
9 | CFALVVAFGISRNTLLVKAFRCIQYCLSKMSYCLATRLQCCPEYSCYIHQPGD | 75300
10 | RKNNKREVKVEAREPHHKGRKNNKREVEAVEEVEARDPHHKGRKNNNREVEVE | 28300
11 | LCAEEYRWHWRAFLTGGGSAFWLLAYGLFFWASRLSLHSMSSAILYLGYLFLL | 77800
12 | ISKTIAVLELACDVLHHNPGVFIISVLLLVIFIAFTAIWMVLFNRLWLIGHLN | 56000
13 | RKKREREAEKAEAKRKEERDARRREREKREEEREREREKEREERRRARERDRE | 33900
14 | MQVSNLLLLVLNLCCVVFLLINLDLHSCFFKLILFIFTSCLFNHPLPFQFIFT | 51700
15 | VPPRSLCFLPSFSILTYILLIFSHLAVCPRPGPPSSSPVSIVLLLFFLRPYLL | 67500
16 | MTFLHLYFSLSSCLLKTCLSFFVPTPQLLHFTSCIFICFIGTGVFFLYFPFLF | 65700
17 | AAAPAAANDGFHEVHHNRGGRGRGGHQGEGRGGYRGRGGPRGEFRGRGRGRGR | 42000
18 | MVINGLPWLVALSIPFTFLASLTHSSWHPLLLRSHSTWRLYWWLVLVLRMHMT | 41500
19 | FSFFHPLHFLPWLLYPSPLISLFFLSFFILFSFFVFFFSCPFFLSLFHIFFPV | 33000
20 | MFCLRSWLPLLFIPTNASPVFIFLFFVCTYFLNRPCVYCSFLLLILFMTSCNW | 62500
21 | PGYVVQYKNSLIGKHFKMLQQLGVFYLHDLCAPLILDLWKATGELGAYLWFPE | 40900
22 | MKKLEKLLLSNDLTSQKKAFLVLCRMHYLTSSLLSSCVVVLVVGWSSIQKNTT | 63400
23 | GDAKSTLEQLGDDAKLVDEDGNLCDAECIVDKVKEVVKHAGRTTRKSLLKLGL | 51100
24 | YAILYFLFFGAWGLRIMSHLPSWWYNCPQFWIDYPHWQMTPELKCYYLMQASY | 73600
25 | MSSEKSSRASKTPTPTPAPPGDHRKRRRNRTTQSCLNCHASKRMCDRKRPACQ | 52300
26 | ADRTSRRRDDRSRSRDRGSSRRDSDRHRHHSRRSSRAERTKKEESQGNGTVPD | 17800
27 | QQEGLKAELPHDFLFQHGTDDTMYNLTDDLSSSLSSSINSDMMTPNTYSSSFS | 65000
28 | MADATATGSTPPQAPLPEPKRHAACDECRLRKLKCSGTRPACERCAREHIACV | 40100
29 | WYHHVPLCILVLLLLAPHPSILYVLLNYHYLTLHATHYFIVHLLTIYAFSFLA | 45900
30 | FYMQLCVNIFLASGFIYILYCAWGAIISDVDIEASKHMSEVLVDIALCAKQYN | 22900
